Here are results for 3 substances from paper PMC7439463.

In assay [1] the target is tag-free BcsRQ complex (E. coli 1094) (UniProt P37655). Kind of assay: SEC-MALS; purified tag-free BcsERQ^FL complex on Superose 6 Increase 10/300 GL, with Cymal-6 detergent. A general note: In gel filtration, larger molecules generally elute earlier.
Assay [2] has as its target BcsQ (tag-free) (E. coli 1094) (UniProt P37655). Description: SEC-MALS; purified sample on Superdex 200 Increase 10/300 GL in its gel filtration buffer (20 mM HEPES pH 8.0, 120 mM NaCl, 2 mM DTT for BcsRQ), 0.5 ml/min.
For assay [3], the target named is BcsE^217-523 (purified, tag-free) (E. coli 1094) (UniProt P37657). Kind of assay: ITC; apparent constants; Microcal VP-ITC, 20 C; tag-free BcsRQ (180 uM, syringe) titrated into BcsE^217-523 (18 uM, cuvette); 20 mM HEPES pH 8.0, 100 mM NaCl, 2 mM DTT; single-site binding model. For orientation: ITC needs no label: the signal is the heat of the interaction.

One may read the stoichiometry N as the number of molecules, sites or subunits per partner or assembly.

“BcsE^FL (tag-free) (from UniProt P37657 1-523) (natural protein)”: the stoichiometry N (BcsE:BcsR:BcsQ, printed as 2:2:2) in assay [1] was determined as 1.

In assay [2], “BcsR (His tag cleaved, in tag-free BcsRQ) (natural protein)” gave a stoichiometry N (BcsR:BcsQ, printed as 2:2) of 1. For the substance “tag-free BcsRQ complex (from UniProt P37655 1-242)”, in assay [3], the Kd came to 16 nM and the stoichiometry N came to 0.95.
